Experimental data published in publication PMC8812904.

Tests used:
[1] = immunoblot of TuMV CP, N. benthamiana; conditions: glycan lost; control: AtVSR4-myc co-expression
[2] = immunoblot with TBSV P19 co-expression, 2 dpai; conditions: glycan lost; control: AtVSR4 wild type with P19
[3] = GFP fluorescence under UV, N. benthamiana, 3 dpai; conditions: glycan lost; control: AtVSR4-myc co-expression
[4] = qRT-PCR of TuMV (+) and (-) RNA, N. benthamiana; conditions: glycan lost; control: AtVSR4-myc co-expression
[5] = confocal counting of punctate bodies, 2 dpai; conditions: glycan lost; control: AtVSR4-myc co-expression
[6] = anti-myc immunoblot, N. benthamiana, 2 dpai; conditions: glycan lost; control: AtVSR4-myc wild type
[7] = symptom observation, 16 dpi; conditions: glycan lost; control: AtVSR4oe transgenic Arabidopsis
[8] = qRT-PCR of TuMV RNA, transgenic Arabidopsis, 16 dpi; conditions: glycan lost; control: AtVSR4oe transgenic Arabidopsis

B1: AtVSR4 (vacuolar sorting receptor 4): AtVSR4TM (protein)
parent chain: MKQLLCYLPWLLLLSLVVSPFNEARFVVEKNSLSVTSPESIKGTHDSAIGNFGIPQYGGSMAGTVVYPKENQKSCKEFSDFSISFKSQPGALPTFLLVDRGDCFFALKVWNAQKAGASAVLVADNVDEPLITMDTPEEDVSSAKYIENITIPSALVTKGFGEKLKKAISGGDMVNLNLDWREAVPHPDDRVEYELWTNSNDECGVKCDMLMEFVKDFKGAAQILEKGGFTQFRPHYITWYCPHAFTLSRQCKSQCINKGRYCAPDPEQDFSSGYDGKDVVVENLRQLCVYKVANETGKPWVWWDYVTDFQIRCPMKEKKYNKDCAESVIKSLGIDSRKIDKCMGDPDADLDNPVLKEEQDAQVGKGTRGDVTILPTLVVNNRQYRGKLEKSAVLKALCSGFEESTEPAICLSTDMETNECLDNNGGCWQDKSANITACKDTFRGKVCVCPIVDGVRFKGDGYSHCEPSGPGRCTINNGGCWHEERDGHAFSACVDKDSVKCECPPGFKGDGVKKCEDINECKEKKACQCPECSCKNTWGSYECSCSGDLLYMRDHDTCISKTGSQVKSAWAAVWLIMLSLGLAAAGAYLVYKYRLRQYMDSEIRAIMAQYMPLDSQPEVPNHTNDERA
other: viral replication, fold_change [1]: increases
expression_or_secretion [2]: decreases
other: viral replication [3]: increases
other: viral replication, fold_change [4]: increases
other: formation of 6K2 punctate bodies [5]: increases

B2: AtVSR4 (vacuolar sorting receptor 4): AtVSR4TM-myc (protein)
parent chain: B1 parent chain
expression_or_secretion [6]: decreases

B3: AtVSR4 (vacuolar sorting receptor 4): AtVSR4TMoe (protein)
parent chain: B1 parent chain
other: viral symptom severity in plants [7]: increases
other: viral replication [8]: increases
